Assay results as given in the supplement of paper PMC10724198.
± gives the standard deviation of the averaged measurements.

Tested on: Saccharomyces cerevisiae
Assay: protein stability index of tFT-peptide fusion (C-terminal peptide) (PSI (0-1 scale)); higher = more stable (slower turnover)
Conditions: genetic background: wild type; temperature: 30 C
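Also: PSI is a weighted mean of sequencing reads over stability bins, variants kept only with over 10 reads, mCherry proximal and sfGFP distal, peptide attached via GGGS linker.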

Point of comparison: FFFSLFFVLFFA, protein stability index 0.22 ± 0.0051. Against it:
- CTLVFLFFDLCS — higher, 0.405 ± 0.053
- CVCVVVCWRCGF — higher, 0.481 ± 0.015
- CVIVCVLVWGRA — higher, 0.24 ± 0.011
- CVMWFLLSAYYL — higher, 0.386 ± 0.061
- CVPAPCGRASCR — higher, 0.698 ± 0.016
- CYSLLFVSVILF — within error, 0.218 ± 0.023
- CYVFLCGSFVFV — higher, 0.471 ± 0.037
- DFLSGRCIFFYV — higher, 0.445 ± 0.0099
- DFRGVSVIRHQV — within error, 0.179 ± 0.047
- DRTRLFLLLIIA — within error, 0.246 ± 0.042
- DTHSRARAVLIA — higher, 0.389 ± 0.086
- DYARAWRTEVVC — higher, 0.424 ± 0.01
- EFEIALTLIRSI — higher, 0.49 ± 0.057
- EFFILYFFLKVL — within error, 0.199 ± 0.021
- EFVACFRLLVHG — higher, 0.392 ± 0.014
- EGLCCGAYFLVF — higher, 0.571 ± 0.14
- EGLDVRILIQVI — higher, 0.294 ± 0.0068
- EKTKRGLIQRVV — higher, 0.3931 ± 0.0028
- ESRRGILFIYIN — lower, 0.13 ± 0.005
- ETCFSFVCSVQC — higher, 0.398 ± 0.0044
- EVFLARKRSMVV — higher, 0.341 ± 0.03
- EWVWVVFSCVSW — higher, 0.3472 ± 0.0015
- FAIRMHCLIFRC — lower, 0.19 ± 0.0057
- FCSVFAHFLLCH — higher, 0.264 ± 0.0032
- FFCCVLFSIVVY — lower, 0.171 ± 0.0089
- FFFSFSFPFLSF — higher, 0.518 ± 0.034
- FFGRWWWSFLLA — higher, 0.364 ± 0.026
- FFLDVMFLLFFF — higher, 0.445 ± 0.037
- FFLLFCASFLRC — higher, 0.381 ± 0.014
- FFLSFICVMLCG — within error, 0.237 ± 0.027
- FFSGSVFMAVSL — higher, 0.408 ± 0.008
- FFVWGVFLGVSW — higher, 0.358 ± 0.012
- FGEDFCHLLWCC — higher, 0.442 ± 0.014
- FGFSFLHLFIFF — higher, 0.399 ± 0.035
- FGGICFAVLLCR — higher, 0.343 ± 0.013
- FHICTQLIFITC — within error, 0.192 ± 0.025
- FILCGFSVVLIG — within error, 0.255 ± 0.12
- FILLIFLSLLSP — higher, 0.3211 ± 0.0026
- FIPPRTYCLMIG — higher, 0.323 ± 0.024
- FIRLFLVSFFIS — within error, 0.31 ± 0.089
- FLACYSSFLFVS — lower, 0.149 ± 0.03
- FLCFFGGCFFLV — higher, 0.468 ± 0.0077
- FLCLLFYLSFFS — higher, 0.415 ± 0.029
- FLFWVLLVGCSF — higher, 0.304 ± 0.028
- FLGVFFYFLLCV — higher, 0.379 ± 0.03
- FLLAIVRGVWLA — lower, 0.176 ± 0.014
- FLPHLMCVFSFC — higher, 0.382 ± 0.0022
- FLVFRPPALFLR — within error, 0.218 ± 0.18
- FLVVCGLLSWVW — higher, 0.348 ± 0.05
- FLVVSSVGFPLL — higher, 0.467 ± 0.027
- FLWLCLLSLFFR — higher, 0.481 ± 0.018
- FLYFLLQFLCSG — higher, 0.516 ± 0.034
- FMCFVLPVFVLV — higher, 0.306 ± 0.024
- FNFFFSSVFLLV — higher, 0.299 ± 0.015
- FPFFFLSILSAV — lower, 0.177 ± 0.019
- FPFVYRSVLLFF — within error, 0.177 ± 0.089
- FPPRLIPLLARS — higher, 0.372 ± 0.02
- FPSCYIWEVEVM — higher, 0.442 ± 0.037
- FPSLLFALFLFI — higher, 0.475 ± 0.017

Tested on: Saccharomyces cerevisiae
Assay: as above
Conditions: genetic background: cdc34-1; temperature: 37 C
Experimental: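 MPS profiling in S. cerevisiae of the tFT-X12 degron library: putative degron peptides plus stable controls, 12 aa, fused to the C-terminus of a sfGFP-mCherry timer. Cells are FACS-sorted into 8 mCherry/sfGFP bins and deep-sequenced. PSI runs from 0 (unstable) to 1 (stable). Backgrounds are wild type, das1Δ and doa10Δ at 30 °C, and wild type, das1Δ, cdc34-1 and cdc53-1 at 37 °C; 2-3 technical replicates each.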

Point of comparison: FFCCVLFSIVVY, protein stability index 0.0536 ± 0.029. Against it:
- CTLVFLFFDLCS — higher, 0.413 ± 0.015
- CVCVVVCWRCGF — higher, 0.378 ± 0.018
- CVIVCVLVWGRA — higher, 0.156 ± 0.025
- CVMWFLLSAYYL — higher, 0.358 ± 0.019
- CVPAPCGRASCR — higher, 0.697 ± 0.013
- CYSLLFVSVILF — within error, 0.123 ± 0.091
- CYVFLCGSFVFV — higher, 0.446 ± 0.011
- DFLSGRCIFFYV — higher, 0.702 ± 0.029
- DFRGVSVIRHQV — higher, 0.615 ± 0.065
- DRTRLFLLLIIA — higher, 0.179 ± 0.0023
- DTHSRARAVLIA — higher, 0.656 ± 0.0091
- DYARAWRTEVVC — higher, 0.393 ± 0.046
- EFEIALTLIRSI — higher, 0.665 ± 0.026
- EFFILYFFLKVL — higher, 0.195 ± 0.007
- EFVACFRLLVHG — higher, 0.3077 ± 0.003
- EGLCCGAYFLVF — higher, 0.695 ± 0.038
- EGLDVRILIQVI — within error, 0.0334 ± 0.016
- EKTKRGLIQRVV — higher, 0.68 ± 0.064
- ESRRGILFIYIN — higher, 0.325 ± 0.049
- ETCFSFVCSVQC — higher, 0.328 ± 0.013
- EVFLARKRSMVV — higher, 0.593 ± 0.043
- EWVWVVFSCVSW — higher, 0.303 ± 0.027
- FAIRMHCLIFRC — within error, 0.123 ± 0.05
- FCSVFAHFLLCH — higher, 0.382 ± 0.011
- FFFSFSFPFLSF — higher, 0.462 ± 0.014
- FFFSLFFVLFFA — higher, 0.284 ± 0.035
- FFGRWWWSFLLA — higher, 0.582 ± 0.038
- FFLDVMFLLFFF — higher, 0.501 ± 0.062
- FFLLFCASFLRC — higher, 0.281 ± 0.021
- FFLSFICVMLCG — higher, 0.192 ± 0.024
- FFSGSVFMAVSL — higher, 0.387 ± 0.011
- FFVWGVFLGVSW — higher, 0.229 ± 0.033
- FGEDFCHLLWCC — higher, 0.623 ± 0.033
- FGFSFLHLFIFF — higher, 0.429 ± 0.051
- FGGICFAVLLCR — higher, 0.246 ± 0.016
- FHICTQLIFITC — within error, 0.06103 ± 0.00047
- FILCGFSVVLIG — higher, 0.153 ± 0.033
- FILLIFLSLLSP — higher, 0.352 ± 0.0047
- FIPPRTYCLMIG — higher, 0.57632 ± 0.00037
- FIRLFLVSFFIS — higher, 0.405 ± 0.048
- FLACYSSFLFVS — higher, 0.417 ± 0.034
- FLCFFGGCFFLV — higher, 0.581 ± 0.032
- FLCLLFYLSFFS — higher, 0.55 ± 0.018
- FLFWVLLVGCSF — higher, 0.244 ± 0.0058
- FLGVFFYFLLCV — higher, 0.235 ± 0.02
- FLLAIVRGVWLA — higher, 0.15 ± 0.029
- FLPHLMCVFSFC — higher, 0.456 ± 0.05
- FLVFRPPALFLR — within error, 0.0932 ± 0.018
- FLVVCGLLSWVW — higher, 0.324 ± 0.00073
- FLVVSSVGFPLL — higher, 0.676 ± 0.017
- FLWLCLLSLFFR — higher, 0.454 ± 0.069
- FLYFLLQFLCSG — higher, 0.517 ± 0.04
- FMCFVLPVFVLV — higher, 0.247 ± 0.013
- FNFFFSSVFLLV — higher, 0.3037 ± 0.0011
- FPFFFLSILSAV — higher, 0.262 ± 0.015
- FPFVYRSVLLFF — higher, 0.392 ± 0.052
- FPPRLIPLLARS — higher, 0.442 ± 0.028
- FPSCYIWEVEVM — higher, 0.403 ± 0.049
